In publication doi:10.1101/2025.01.15.633165, “The mechanism of DRB7.2:DRB4 mediated sequestering of endogenous inverted-repeat dsRNA precursors in plants” (bioRxiv, 2025):
Values joined by “and” are separate entries in the source; they are usually repeats but may differ in a detail not shown here. Equal values may be shown once. One block for each binder: values may come before it.

B1: DRB7.2 (M1-V190) (natural protein, A. thaliana, UniProt F4JHB3 1-190, looked up)
chain: MDLPPPESSSNPISSFSVAQKRMLLQRCESKFKIRKLNDTVEEDNVTQMEPNFTLENTLVSEPEADLRPHTTEPTTEEETQRSSAKSQLYNLCSVRHWKAPLYEYIAEGPCHMKIFTGKVTVEMKEDSRITVLECFGNPQYKKKIAAEQAAEAALWYLKNVGYTLQTEKASGRKGRSKPISKMMVTGEPV
notes: DRB7.2, A. thaliana, UniProt F4JHB3, residues M1-V190; Perdeuterated and U-15N labelled for NMR; Further cloning details are in Paturi & Deshmukh, 2023; also called full-length DRB7.2
B5: DRB4 (1-355) (natural protein, A. thaliana, UniProt Q8H1D4 1-355, looked up)
chain: MDHVYKGQLQAYALQHNLELPVYANEREGPPHAPRFRCNVTFCGQTFQSSEFFPTLKSAEHAAAKIAVASLTPQSPEGIDVAYKNLLQEIAQKESSLLPFYATATSGPSHAPTFTSTVEFAGKVFSGEEAKTKKLAEMSAAKVAFMSIKNGNSNQTGSPTLPSERQEDVNSNVKSSPQEIHSQPSSKVVMTPDTPSKGIKVNEDEFPDLHDAPASNAKEINVALNEPENPTNDGTLSALTTDGMKMNIASSSLPIPHNPTNVITLNAPAANGIKRNIAACSSWMPQNPTNDGSETSSCVVDESEKKKLIMGTGHLSIPTGQHVVCRPWNPEITLPQDAEMLFRDDKFIAYRLVKP
notes: DRB4, A. thaliana, UniProt Q8H1D4, residues 1-355; source: cloned, expressed and purified as described (Chiliveri et al, 2017)

Columns and labels:
DRB4C (154-355) = molecular target: T1, DRB4C (154-355) (A. thaliana, UniProt Q8H1D4 154-355); test: ITC; DRB4 constructs (200 μM, syringe) injected into DRB7.2 or DRB7.2M (20 μM, cell); 25 °C; 50 mM potassium phosphate pH 7.0, 50 mM NaCl, 50 mM Na2SO4, 2 mM DTT; conditions: both partners purified
T1 construct: DRB4, A. thaliana, UniProt Q8H1D4, residues 154-355 (flexible segment N154-S293 and domain D3 E294-P355); source: cloned, expressed and purified as described (Chiliveri et al, 2017)
T1 sequence (looked up): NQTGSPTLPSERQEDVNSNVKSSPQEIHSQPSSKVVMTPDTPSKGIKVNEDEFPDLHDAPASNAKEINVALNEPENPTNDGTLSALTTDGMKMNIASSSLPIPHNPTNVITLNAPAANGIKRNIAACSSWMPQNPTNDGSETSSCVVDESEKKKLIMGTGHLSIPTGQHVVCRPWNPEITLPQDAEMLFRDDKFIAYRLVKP

DRB4 (1-355) = molecular target: B5; test: as above; conditions: both partners purified
DRB7.2N = molecular target: T2, DRB7.2N (Arabidopsis thaliana, UniProt F4JHB3 1-81); test: EMSA; 20 uM protein, 750 nM RNA; EMSA: 50 mM potassium phosphate pH 7.0, 50 mM NaCl, 50 mM Na2SO4, 2 mM DTT; 40 bp RNA at 750 nM, 30 min, room temperature; 32P 80 bp dsRNA at 1 nM, 1 h, 4 C; conditions: protein: recombinant, tags: His6 (pET28a), label: none (SYBR Gold stain), 1 nt 3' overhang (C) on complementary strand
T2 sequence: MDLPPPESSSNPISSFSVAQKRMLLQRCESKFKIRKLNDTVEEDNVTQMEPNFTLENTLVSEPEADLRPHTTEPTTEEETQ

DRB4 = molecular target: T3, DRB4 (Arabidopsis thaliana, UniProt Q8H1D4 1-355); test: EMSA; apparent Kd; Hill 2.44±0.45; EMSA: 50 mM potassium phosphate pH 7.0, 50 mM NaCl, 50 mM Na2SO4, 2 mM DTT; 40 bp RNA at 750 nM, 30 min, room temperature; 32P 80 bp dsRNA at 1 nM, 1 h, 4 C; conditions: protein: recombinant, label: none (SYBR Gold stain), 1 nt 3' overhang (C) on complementary strand
T3 sequence: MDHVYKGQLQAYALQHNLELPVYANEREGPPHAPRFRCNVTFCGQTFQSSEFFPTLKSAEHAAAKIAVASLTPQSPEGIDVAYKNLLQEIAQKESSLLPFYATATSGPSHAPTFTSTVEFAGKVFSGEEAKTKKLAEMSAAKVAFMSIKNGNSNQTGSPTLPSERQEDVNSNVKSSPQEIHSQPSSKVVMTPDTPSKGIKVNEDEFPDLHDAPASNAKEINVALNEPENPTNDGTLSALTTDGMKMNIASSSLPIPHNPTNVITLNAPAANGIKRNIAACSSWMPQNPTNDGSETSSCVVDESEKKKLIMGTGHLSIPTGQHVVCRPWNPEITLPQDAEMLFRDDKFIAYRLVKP

DRB7.2 [1] = molecular target: T4, DRB7.2 (Arabidopsis thaliana, UniProt F4JHB3 1-190); test: EMSA; apparent Kd; Hill 2.68±0.77; EMSA: 50 mM potassium phosphate pH 7.0, 50 mM NaCl, 50 mM Na2SO4, 2 mM DTT; 40 bp RNA at 750 nM, 30 min, room temperature; 32P 80 bp dsRNA at 1 nM, 1 h, 4 C; conditions: protein: recombinant, tags: His6 tag with TEV cleavage (pETtrx-1b), label: none (SYBR Gold stain), 1 nt 3' overhang (C) on complementary strand
T4 sequence: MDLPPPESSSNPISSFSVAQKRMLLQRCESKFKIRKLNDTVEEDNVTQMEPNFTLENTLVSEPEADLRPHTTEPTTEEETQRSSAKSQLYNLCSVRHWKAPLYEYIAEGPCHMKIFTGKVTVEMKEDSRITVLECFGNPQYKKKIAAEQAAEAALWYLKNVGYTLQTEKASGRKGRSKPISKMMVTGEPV

DRB4D3 [2] = molecular target: T5, DRB4D3 (Arabidopsis thaliana, UniProt Q8H1D4 294-355); test: EMSA; 20 uM protein, 750 nM RNA; also higher concentrations; EMSA: 50 mM potassium phosphate pH 7.0, 50 mM NaCl, 50 mM Na2SO4, 2 mM DTT; 40 bp RNA at 750 nM, 30 min, room temperature; 32P 80 bp dsRNA at 1 nM, 1 h, 4 C; conditions: protein: recombinant, label: none (SYBR Gold stain), 1 nt 3' overhang (C) on complementary strand
T5 sequence: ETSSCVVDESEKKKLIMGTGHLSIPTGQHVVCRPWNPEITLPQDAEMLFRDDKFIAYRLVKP

DRB7.2;DRB4 = molecular target: T6, DRB7.2;DRB4 (Arabidopsis thaliana;Arabidopsis …, UniProt F4JHB3;Q8H1D4 1-190;1-355, |); test: EMSA; apparent Kd; Hill 2.05±0.65; EMSA: 50 mM potassium phosphate pH 7.0, 50 mM NaCl, 50 mM Na2SO4, 2 mM DTT; 40 bp RNA at 750 nM, 30 min, room temperature; 32P 80 bp dsRNA at 1 nM, 1 h, 4 C; conditions: protein: recombinant;recombinant, tags: His6 tag with TEV cleavage (pETtrx-1b);, label: none (SYBR Gold stain), 1 nt 3' overhang (C) on complementary strand
T6 sequence 1: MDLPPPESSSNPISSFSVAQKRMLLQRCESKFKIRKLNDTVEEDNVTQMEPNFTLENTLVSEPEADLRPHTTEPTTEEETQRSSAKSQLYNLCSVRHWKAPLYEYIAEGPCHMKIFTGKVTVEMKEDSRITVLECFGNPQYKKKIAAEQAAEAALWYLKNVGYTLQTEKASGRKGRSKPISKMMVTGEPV
T6 sequence 2: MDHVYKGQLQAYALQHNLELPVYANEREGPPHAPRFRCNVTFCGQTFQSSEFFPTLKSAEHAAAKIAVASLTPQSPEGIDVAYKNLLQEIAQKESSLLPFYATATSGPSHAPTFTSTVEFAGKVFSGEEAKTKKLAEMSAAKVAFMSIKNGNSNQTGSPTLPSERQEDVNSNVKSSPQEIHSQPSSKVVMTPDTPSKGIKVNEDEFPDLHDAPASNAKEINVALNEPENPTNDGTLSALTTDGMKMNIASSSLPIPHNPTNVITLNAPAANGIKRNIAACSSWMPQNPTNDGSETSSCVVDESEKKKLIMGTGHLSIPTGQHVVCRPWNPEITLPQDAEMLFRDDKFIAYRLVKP

DRB7.2 (M1-V190) = molecular target: B1; test: ITC; DRB4 constructs (200 μM, syringe) injected into DRB7.2 or DRB7.2M (20 μM, cell); 25 °C; 50 mM potassium phosphate pH 7.0, 50 mM NaCl, 50 mM Na2SO4, 2 mM DTT; conditions: both partners purified
DRB7.2M (T71-G162) [3] = molecular target: T7, DRB7.2M (T71-G162) (A. thaliana, UniProt F4JHB3 71-162); test: as above; conditions: both partners purified
T7 construct: DRB7.2, A. thaliana, UniProt F4JHB3, residues T71-G162 (dsRBD S84-G162 with the N-terminal flanking residues T71-S83); Isotope labelled (15N, 13C, 2H) or perdeuterated for NMR; Further cloning details are in Paturi & Deshmukh, 2023; also called dsRBD region of DRB7.2; DRB7.2 dsRBD
T7 sequence (looked up): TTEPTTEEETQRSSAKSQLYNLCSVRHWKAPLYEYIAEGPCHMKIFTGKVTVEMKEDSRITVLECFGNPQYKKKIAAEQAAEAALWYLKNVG

DRB7.2M (T71-G162) [4] = molecular target: T7, DRB7.2M (T71-G162); test: MALDI-TOF MS; samples after SEC; 0.5 mg/mL, 2 mg/mL and 5 mg/mL; conditions: both partners purified
DRB7.2M (T71-G162) [5] = molecular target: T7, DRB7.2M (T71-G162); test: ITC; DRB4D3 and the preformed complex of DRB7.2M:80 bp dsRNA; one site binding model; conditions: both partners purified
DRB4D3 [6] = molecular target: T5, DRB4D3; test: EMSA; EMSA: 50 mM potassium phosphate pH 7.0, 50 mM NaCl, 50 mM Na2SO4, 2 mM DTT; 40 bp RNA at 750 nM, 30 min, room temperature; 32P 80 bp dsRNA at 1 nM, 1 h, 4 C; conditions: protein: recombinant; Methods text mentions 1 nt 3' overhang
DRB7.2M;DRB4D3 = molecular target: T8, DRB7.2M;DRB4D3 (Arabidopsis thaliana;Arabidopsis …, UniProt F4JHB3;Q8H1D4 71-162;294-355, |); test: EMSA; saturation at ~2 uM; 1 nM RNA, 4 C; ternary complex also in Fig. S11D; EMSA: 50 mM potassium phosphate pH 7.0, 50 mM NaCl, 50 mM Na2SO4, 2 mM DTT; 40 bp RNA at 750 nM, 30 min, room temperature; 32P 80 bp dsRNA at 1 nM, 1 h, 4 C; conditions: protein: recombinant;recombinant; tags: His6 tag with TEV cleavage (pETtrx-1b);; copies: 1;1; Methods text mentions 1 nt 3' overhang
T8 sequence 1: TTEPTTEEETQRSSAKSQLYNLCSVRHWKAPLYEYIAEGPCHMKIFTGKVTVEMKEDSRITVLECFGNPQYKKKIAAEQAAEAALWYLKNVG
T8 sequence 2: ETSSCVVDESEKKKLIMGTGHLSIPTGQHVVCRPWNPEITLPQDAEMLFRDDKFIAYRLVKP

DRB7.2M = molecular target: T9, DRB7.2M (Arabidopsis thaliana, UniProt F4JHB3 71-162); test: EMSA; saturation at ~2 uM; 1 nM RNA, 4 C; EMSA: 50 mM potassium phosphate pH 7.0, 50 mM NaCl, 50 mM Na2SO4, 2 mM DTT; 40 bp RNA at 750 nM, 30 min, room temperature; 32P 80 bp dsRNA at 1 nM, 1 h, 4 C; conditions: protein: recombinant; tags: His6 tag with TEV cleavage (pETtrx-1b); Methods text mentions 1 nt 3' overhang
T9 sequence: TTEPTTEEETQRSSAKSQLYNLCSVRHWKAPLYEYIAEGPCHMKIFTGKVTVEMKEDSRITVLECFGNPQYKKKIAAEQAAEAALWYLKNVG

DRB7.2 [7] = molecular target: T4, DRB7.2; test: as above; conditions: protein: recombinant; tags: His6 tag with TEV cleavage (pETtrx-1b); Methods text mentions 1 nt 3' overhang

Binder: B1
- Kd (DRB4C (154-355)): 2.8 ± 1.6 nM
- Kd (DRB4 (1-355)): 3.1 ± 1.5 nM

B2: 40 bp RNA (pre-siRNA) (dsRNA)
RNA 1: AACAAGCGAAUGAGUCAUUCAUCCUAAGUCUGCAUAAAGU
RNA 2: ACUUUAUGCAGACUUAGGAUGAAUGACUCAUUCGCUUGUUC
modifications: 5'-phosphate on guide strand
- binding result (DRB7.2N): no binding
- Kd (DRB4): 3600 ± 310 nM
- Kd (DRB7.2 [1]): 2280 ± 270 nM
- binding result (DRB4D3 [2]): no binding
- Kd (DRB7.2;DRB4): 1020 ± 170 nM

- Kd (DRB7.2 (M1-V190)): 2.2 ± 1.2 nM
- Kd (DRB7.2M (T71-G162) [3]): 2.84 ± 1.15 nM
- stoichiometry N (DRB7.2M (T71-G162) [3]): 0.95
- stoichiometry N (DRB7.2M (T71-G162) [4]): 1
- Kd (DRB7.2M (T71-G162) [5]): 9.43 nM and ~9.5 nM
- stoichiometry N (DRB7.2M (T71-G162) [5]): 0.81
B3: DRB4D3 (294-355) (domain or fragment, A. thaliana, UniProt Q8H1D4 294-355, looked up)
chain: ETSSCVVDESEKKKLIMGTGHLSIPTGQHVVCRPWNPEITLPQDAEMLFRDDKFIAYRLVKP
notes: DRB4, A. thaliana, UniProt Q8H1D4, residues 294-355 (E294-P355); Isotope labelled (15N, 13C, 2H) or perdeuterated for NMR; source: cloned, expressed and purified as described (Chiliveri et al, 2017)

B4: 80 bp dsRNA (dsRNA)
RNA 1: GGGUGCUGUUUCUCGUGUUCGUGUUCGUUUCUCUUCUCUUGUCCUUGUUCUGUUCUCCUUUGUUCGUUCCUGUUCCCCUU
RNA 2: AAGGGGAACAGGAACGAACAAAGGAGAACAGAACAAGGACAAGAGAAGAGAAACGAACACGAACACGAGAAACAGCACCC
- binding result (DRB4D3 [6]): no binding
- binding result (DRB7.2M;DRB4D3): binds
- binding result (DRB7.2M): binds
- binding result (DRB7.2 [7]): binds

Binder: B5
- stoichiometry N (DRB7.2 (M1-V190)): 0.8
